Experimental findings from the RNAGym collection of RNA variant scans (doi:10.1093/molbev/msab373) are described below.

B1: Azoarcus group I ribozyme (parent)
chain: GUGCCUUGCGCCGGGAAACCACGCAAGGGAUGGUGUCAAAUUCGGCGAAACCUAAGCGCCCGCCCGGGCGUAUGGCAACGCCGAGCCAAGCUUCGGCGCCUGCGCCGAUGAAGGUGUAGAGACUAGACGGCACCCACCUAAGGCAAACGCUAUGGUGAAGGCAUAGUCCAGGGAGUGGCGAAAGUCACACAAACCGG

Variants of B1 are the subject of this series. As to the kind of experiment: reverse-splicing fitness (ratio to wild type); higher = more active; in vitro selection; Mg2+ level not given. The method, boiled down: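 An in vitro group I ribozyme library with randomized positions was T7-transcribed and gel-purified. In triplicate, 10 pmol RNA in EPPS pH 7.5 was reacted with 50 pmoles of a 30-nt RNA substrate for 1 h at 37 °C across several added MgCl2 levels (1–48 mM), then stopped with EDTA. Products were reverse transcribed from a substrate-complementary primer, PCR-amplified and sequenced (HiSeq 4000). Fitness is a variant's read proportion after selection over that before, normalised to wild type.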
As to GUGCCUUGCGCCGGGAAACCACGCAAGGGAUGGUGUCAAAUUCGGCGAAACCUAAGCGCCCGCCCGGGCGUAUGGCAACGCUGAGCCAAGCUUCGGCGCCUGCGCCGAUGCAGGUGUAGUGACUAGACGGCACCCACCUAAGGCUAACGCUAUGGUGAAGGCAUAGUCAAGGGAGCGGCGAAAGUCACACAAACCGG, the reverse-splicing fitness was determined as 0.00251.

GUGCCUUGCGCCGGGAAACCACGCAAGGGAUGGUGUCAAAUUCGGCGAAACCUAAGCGCCCGCCCGGGCGUAUGGCAACGCUGAGCCAAGCUUCGGCGCCUGCGCCGAUGGAGGUGUAGUGACUAGACGGCACCCACCUAAGGCAAACGUUAUGGUGAAGGCAUAGUCAAGGGAGAGGCGAAAGUCACACAAACCGG: the reverse-splicing fitness amounted to 0.00365.

For the variant GUGCCUUGCGCCGGGAAACCACGCAAGGGAUGGUGUCAAAUUCGGCGAAACCUAAGCGCCCGCCCGGGCGUAUGGCAACGCGGAGCCAAGCUUCGGCGCCUGCGCCGAUGUAGGUGUAGAGACUAGACGGCACCCACCUAAGGCUAACGAUAUGGUGAAGGCAUAGUCCAGGGAGGGGCGAAAGUCACACAAACCGG, the reverse-splicing fitness is 0.0115.

Take GUGCCUUGCGCCGGGAAACCACGCAAGGGAUGGUGUCAAAUUCGGCGAAACCUAAGCGCCCGCCCGGGCGUAUGGCAACGCCGAGCCAAGCUUCGGCGCCUGCGCCGAUGAAGGUGUAGUGACUAGACGGCACCCACCUAAGGCGAACGAUAUGGUGAAGGCAUAGUCGAGGGAGUGGCGAAAGUCACACAAACCGG: the reverse-splicing fitness came out at 0.0459.

Regarding GUGCCUUGCGCCGGGAAACCACGCAAGGGAUGGUGUCAAAUUCGGCGAAACCUAAGCGCCCGCCCGGGCGUAUGGCAACGCGGAGCCAAGCUUCGGCGCCUGCGCCGAUGAAGGUGUAGCGACUAGACGGCACCCACCUAAGGCGAACGCUAUGGUGAAGGCAUAGUCUAGGGAGUGGCGAAAGUCACACAAACCGG, the reverse-splicing fitness was determined as 0.0256.

In the case of GUGCCUUGCGCCGGGAAACCACGCAAGGGAUGGUGUCAAAUUCGGCGAAACCUAAGCGCCCGCCCGGGCGUAUGGCAACGCCGAGCCAAGCUUCGGCGCCUGCGCCGAUGCAGGUGUAGCGACUAGACGGCACCCACCUAAGGCCAACGAUAUGGUGAAGGCAUAGUCCAGGGAGAGGCGAAAGUCACACAAACCGG, the reverse-splicing fitness worked out at 0.0203.

As for GUGCCUUGCGCCGGGAAACCACGCAAGGGAUGGUGUCAAAUUCGGCGAAACCUAAGCGCCCGCCCGGGCGUAUGGCAACGCAGAGCCAAGCUUCGGCGCCUGCGCCGAUGGAGGUGUAGUGACUAGACGGCACCCACCUAAGGCAAACGUUAUGGUGAAGGCAUAGUCUAGGGAGGGGCGAAAGUCACACAAACCGG, the reverse-splicing fitness was 0.00221.

As to GUGCCUUGCGCCGGGAAACCACGCAAGGGAUGGUGUCAAAUUCGGCGAAACCUAAGCGCCCGCCCGGGCGUAUGGCAACGCUGAGCCAAGCUUCGGCGCCUGCGCCGAUGAAGGUGUAGAGACUAGACGGCACCCACCUAAGGCCAACGGUAUGGUGAAGGCAUAGUCCAGGGAGGGGCGAAAGUCACACAAACCGG, the reverse-splicing fitness turned out to be 0.00905.

As to GUGCCUUGCGCCGGGAAACCACGCAAGGGAUGGUGUCAAAUUCGGCGAAACCUAAGCGCCCGCCCGGGCGUAUGGCAACGCAGAGCCAAGCUUCGGCGCCUGCGCCGAUGCAGGUGUAGCGACUAGACGGCACCCACCUAAGGCCAACGGUAUGGUGAAGGCAUAGUCAAGGGAGCGGCGAAAGUCACACAAACCGG, the reverse-splicing fitness is 0.00798.

On to GUGCCUUGCGCCGGGAAACCACGCAAGGGAUGGUGUCAAAUUCGGCGAAACCUAAGCGCCCGCCCGGGCGUAUGGCAACGCAGAGCCAAGCUUCGGCGCCUGCGCCGAUGCAGGUGUAGCGACUAGACGGCACCCACCUAAGGCCAACGAUAUGGUGAAGGCAUAGUCAAGGGAGAGGCGAAAGUCACACAAACCGG, for which the reverse-splicing fitness was 0.0167.

For GUGCCUUGCGCCGGGAAACCACGCAAGGGAUGGUGUCAAAUUCGGCGAAACCUAAGCGCCCGCCCGGGCGUAUGGCAACGCGGAGCCAAGCUUCGGCGCCUGCGCCGAUGUAGGUGUAGGGACUAGACGGCACCCACCUAAGGCCAACGCUAUGGUGAAGGCAUAGUCCAGGGAGAGGCGAAAGUCACACAAACCGG, the reverse-splicing fitness was 0.012.

GUGCCUUGCGCCGGGAAACCACGCAAGGGAUGGUGUCAAAUUCGGCGAAACCUAAGCGCCCGCCCGGGCGUAUGGCAACGCUGAGCCAAGCUUCGGCGCCUGCGCCGAUGAAGGUGUAGCGACUAGACGGCACCCACCUAAGGCUAACGAUAUGGUGAAGGCAUAGUCAAGGGAGCGGCGAAAGUCACACAAACCGG: the reverse-splicing fitness is 0.00669.

In the case of GUGCCUUGCGCCGGGAAACCACGCAAGGGAUGGUGUCAAAUUCGGCGAAACCUAAGCGCCCGCCCGGGCGUAUGGCAACGCCGAGCCAAGCUUCGGCGCCUGCGCCGAUGGAGGUGUAGGGACUAGACGGCACCCACCUAAGGCGAACGCUAUGGUGAAGGCAUAGUCGAGGGAGCGGCGAAAGUCACACAAACCGG, the reverse-splicing fitness stood at 0.134.

Consider GUGCCUUGCGCCGGGAAACCACGCAAGGGAUGGUGUCAAAUUCGGCGAAACCUAAGCGCCCGCCCGGGCGUAUGGCAACGCCGAGCCAAGCUUCGGCGCCUGCGCCGAUGGAGGUGUAGAGACUAGACGGCACCCACCUAAGGCUAACGAUAUGGUGAAGGCAUAGUCAAGGGAGCGGCGAAAGUCACACAAACCGG, for which the reverse-splicing fitness worked out at 0.00843.

In the case of GUGCCUUGCGCCGGGAAACCACGCAAGGGAUGGUGUCAAAUUCGGCGAAACCUAAGCGCCCGCCCGGGCGUAUGGCAACGCUGAGCCAAGCUUCGGCGCCUGCGCCGAUGGAGGUGUAGUGACUAGACGGCACCCACCUAAGGCCAACGCUAUGGUGAAGGCAUAGUCAAGGGAGUGGCGAAAGUCACACAAACCGG, the reverse-splicing fitness came to 0.00224.
